Publication doi:10.1101/2025.04.04.646765, “Molecular basis for multidrug efflux by an anaerobic RND transporter” (bioRxiv, 2025)
Changes are numbered by the printed parent chain. In names and notes the source's numbering stands.

B1: Escherichia coli multidrug transporter MdtF, wild type (MdtF-6xHis) in SMA lipid particles (natural protein)
chain: MANYFIDRPVFAWVLAIIMMLAGGLAIMNLPVAQYPQIAPPTITVSATYPGADAQTVEDSVTQVIEQNMNGLDGLMYMSSTSDAAGNASITLTFETGTSPDIAQVQVQNKLQLAMPSLPEAVQQQGISVDKSSSNILMVAAFISDNGSLNQYDIADYVASNIKDPLSRTAGVGSVQLFGSEYAMRIWLDPQKLNKYNLVPSDVISQIKVQNNQISGGQLGGMPQAADQQLNASIIVQTRLQTPEEFGKILLKVQQDGSQVLLRDVARVELGAEDYSTVARYNGKPAAGIAIKLAAGANALDTSRAVKEELNRLSAYFPASLKTVYPYDTTPFIEISIQEVFKTLVEAIILVFLVMYLFLQNFRATIIPTIAVPVVILGTFAILSAVGFTINTLTMFGMVLAIGLLVDDAIVVVENVERVIAEDKLPPKEATHKSMGQIQRALVGIAVVLSAVFMPMAFMSGATGEIYRQFSITLISSMLLSVFVAMSLTPALCATILKAAPEGGHKPNALFARFNTLFEKSTQHYTDSTRSLLRCTGRYMVVYLLICAGMAVLFLRTPTSFLPEEDQGVFMTTAQLPSGATMVNTTKVLQQVTDYYLTKEKDNVQSVFTVGGFGFSGQGQNNGLAFISLKPWSERVGEENSVTAIIQRAMIALSSINKAVVFPFNLPAVAELGTASGFDMELLDNGNLGHEKLTQARNELLSLAAQSPNQVTGVRPNGLEDTPMFKVNVNAAKAEAMGVALSDINQTISTAFGSSYVNDFLNQGRVKKVYVQAGTPFRMLPDNINQWYVRNASGTMAPLSAYSSTEWTYGSPRLERYNGIPSMEILGEAAAGKSTGDAMKFMADLVAKLPAGVGYSWTGLSYQEALSSNQAPALYAISLVVVFLALAALYESWSIPFSVMLVVPLGVVGALLATDLRGLSNDVYFQVGLLTTIGLSAKNAILIVEFAVEMMQKEGKTPIEAIIEAARMRLRPILMTSLAFILGVLPLVISHGAGSGAQNAVGTGVMGGMFAATVLAIYFVPVFFVVVEHLFARFKKA
notes: also called MdtF^WT; apo-MdtF^WT; source: E. coli C43(DE3) ΔacrAB, extracted in SMALPs, purified (Ni-NTA, SEC)
B2: Escherichia coli multidrug transporter MdtF, single-point mutant V610F (MdtF-6xHis) in SMA lipid particles (natural protein)
chain: B1 chain with V610F
notes: also called MdtF^V610F; apo-MdtF^V610F; source: E. coli C43(DE3) ΔacrAB, extracted in SMALPs, purified (Ni-NTA, SEC)

Target: the molecule itself
Assay: cryo-EM structure

| Protein | stoichiometry N | binding result |
| --- | --- | --- |
| B1 | 3 |  |
| B2 |  | binds |
